This is an account of results in patent US20210388087A1 (Chugai, published 2021).

The labels stand for the following.
B1: CE115HA000 Q105E (antibody, human IgG1, kappa, L234A L235A, N297A, name in Kabat numbering)
heavy: QVQLVESGGGVVQPGRSLRLSCAASGFTFSNAWMHWVRQAPGKGLEWVAQIKAKSNNYATYYAESVKGRFTISRDDSKNSLYLQMNSLKTEDTAVYYCRYVHYGAYYGVDAWGEGTTVTVSSASTKGPSVFPLAPSSKSTSGGTAALGCLVKDYFPEPVTVSWNSGALTSGVHTFPAVLQSSGLYSLSSVVTVPSSSLGTQTYICNVNHKPSNTKVDKKVEPKSCDKTHTCPPCPAPEAAGGPSVFLFPPKPKDTLMISRTPEVTCVVVDVSHEDPEVKFNWYVDGVEVHNAKTKPREEQYASTYRVVSVLTVLHQDWLNGKEYKCKVSNKALPAPIEKTISKAKGQPREPQVYTLPPSRCELTKNQVSLSCAVKGFYPSDIAVEWESNGQPENNYKTTPPVLDSDGSFFLVSKLTVDKSRWQQGNVFSCSVMHEALHNHYTQKSLSLSPDYKDDDDK
chain: EPKSSDKTHTCPPCPAPELLGGPSVFLFPPKPKDTLMISRTPEVTCVVVDVSHEDPEVKFNWYVDGVEVHNAKTKPREEQYNSTYRVVSVLTVLHQDWLNGKEYKCKVSNKALPAPIEKTISKAKGQPREPQVCTLPPSRDELTKNQVSLWCLVKGFYPSDIAVEWESNGQPENNYKTTPPVLDSDGSFFLYSKLTVDKSRWQQGNVFSCSVMHEALHNRYTQKSLSLSP
light: DIVMTQSPLSLPVTPGEPASISCRSSQSLVHSNRNTYLHWYQQKPGQAPRLLIYKVSNRFSGVPDRFSGSGSGTDFTLKISRVEAEDVGVYYCGQGTQVPYTFGQGTKLEIKRTVAAPSVFIFPPSDEQLKSGTASVVCLLNNFYPREAKVQWKVDNALQSGNSQESVTEQDSKDSTYSLSSTLTLSKADYEKHKVYACEVTHQGLSSPVTKSFNRGEC
notes: one-arm antibody
B2: CE115HA000 R16Q (antibody, human IgG1, kappa, L234A L235A, N297A, name in Kabat numbering)
heavy: QVQLVESGGGVVQPGQSLRLSCAASGFTFSNAWMHWVRQAPGKGLEWVAQIKAKSNNYATYYAESVKGRFTISRDDSKNSLYLQMNSLKTEDTAVYYCRYVHYGAYYGVDAWGQGTTVTVSSASTKGPSVFPLAPSSKSTSGGTAALGCLVKDYFPEPVTVSWNSGALTSGVHTFPAVLQSSGLYSLSSVVTVPSSSLGTQTYICNVNHKPSNTKVDKKVEPKSCDKTHTCPPCPAPEAAGGPSVFLFPPKPKDTLMISRTPEVTCVVVDVSHEDPEVKFNWYVDGVEVHNAKTKPREEQYASTYRVVSVLTVLHQDWLNGKEYKCKVSNKALPAPIEKTISKAKGQPREPQVYTLPPSRCELTKNQVSLSCAVKGFYPSDIAVEWESNGQPENNYKTTPPVLDSDGSFFLVSKLTVDKSRWQQGNVFSCSVMHEALHNHYTQKSLSLSPDYKDDDDK
chain: EPKSSDKTHTCPPCPAPELLGGPSVFLFPPKPKDTLMISRTPEVTCVVVDVSHEDPEVKFNWYVDGVEVHNAKTKPREEQYNSTYRVVSVLTVLHQDWLNGKEYKCKVSNKALPAPIEKTISKAKGQPREPQVCTLPPSRDELTKNQVSLWCLVKGFYPSDIAVEWESNGQPENNYKTTPPVLDSDGSFFLYSKLTVDKSRWQQGNVFSCSVMHEALHNRYTQKSLSLSP
light: DIVMTQSPLSLPVTPGEPASISCRSSQSLVHSNRNTYLHWYQQKPGQAPRLLIYKVSNRFSGVPDRFSGSGSGTDFTLKISRVEAEDVGVYYCGQGTQVPYTFGQGTKLEIKRTVAAPSVFIFPPSDEQLKSGTASVVCLLNNFYPREAKVQWKVDNALQSGNSQESVTEQDSKDSTYSLSSTLTLSKADYEKHKVYACEVTHQGLSSPVTKSFNRGEC
notes: one-arm antibody
B3: CE115HA000 S30G (antibody, human IgG1, kappa, L234A L235A, N297A, name in Kabat numbering)
heavy: QVQLVESGGGVVQPGRSLRLSCAASGFTFGNAWMHWVRQAPGKGLEWVAQIKAKSNNYATYYAESVKGRFTISRDDSKNSLYLQMNSLKTEDTAVYYCRYVHYGAYYGVDAWGQGTTVTVSSASTKGPSVFPLAPSSKSTSGGTAALGCLVKDYFPEPVTVSWNSGALTSGVHTFPAVLQSSGLYSLSSVVTVPSSSLGTQTYICNVNHKPSNTKVDKKVEPKSCDKTHTCPPCPAPEAAGGPSVFLFPPKPKDTLMISRTPEVTCVVVDVSHEDPEVKFNWYVDGVEVHNAKTKPREEQYASTYRVVSVLTVLHQDWLNGKEYKCKVSNKALPAPIEKTISKAKGQPREPQVYTLPPSRCELTKNQVSLSCAVKGFYPSDIAVEWESNGQPENNYKTTPPVLDSDGSFFLVSKLTVDKSRWQQGNVFSCSVMHEALHNHYTQKSLSLSPDYKDDDDK
chain: EPKSSDKTHTCPPCPAPELLGGPSVFLFPPKPKDTLMISRTPEVTCVVVDVSHEDPEVKFNWYVDGVEVHNAKTKPREEQYNSTYRVVSVLTVLHQDWLNGKEYKCKVSNKALPAPIEKTISKAKGQPREPQVCTLPPSRDELTKNQVSLWCLVKGFYPSDIAVEWESNGQPENNYKTTPPVLDSDGSFFLYSKLTVDKSRWQQGNVFSCSVMHEALHNRYTQKSLSLSP
light: DIVMTQSPLSLPVTPGEPASISCRSSQSLVHSNRNTYLHWYQQKPGQAPRLLIYKVSNRFSGVPDRFSGSGSGTDFTLKISRVEAEDVGVYYCGQGTQVPYTFGQGTKLEIKRTVAAPSVFIFPPSDEQLKSGTASVVCLLNNFYPREAKVQWKVDNALQSGNSQESVTEQDSKDSTYSLSSTLTLSKADYEKHKVYACEVTHQGLSSPVTKSFNRGEC
notes: one-arm antibody
B4: CE115HA000 S30D (antibody, human IgG1, kappa, L234A L235A, N297A, name in Kabat numbering)
heavy: QVQLVESGGGVVQPGRSLRLSCAASGFTFDNAWMHWVRQAPGKGLEWVAQIKAKSNNYATYYAESVKGRFTISRDDSKNSLYLQMNSLKTEDTAVYYCRYVHYGAYYGVDAWGQGTTVTVSSASTKGPSVFPLAPSSKSTSGGTAALGCLVKDYFPEPVTVSWNSGALTSGVHTFPAVLQSSGLYSLSSVVTVPSSSLGTQTYICNVNHKPSNTKVDKKVEPKSCDKTHTCPPCPAPEAAGGPSVFLFPPKPKDTLMISRTPEVTCVVVDVSHEDPEVKFNWYVDGVEVHNAKTKPREEQYASTYRVVSVLTVLHQDWLNGKEYKCKVSNKALPAPIEKTISKAKGQPREPQVYTLPPSRCELTKNQVSLSCAVKGFYPSDIAVEWESNGQPENNYKTTPPVLDSDGSFFLVSKLTVDKSRWQQGNVFSCSVMHEALHNHYTQKSLSLSPDYKDDDDK
chain: EPKSSDKTHTCPPCPAPELLGGPSVFLFPPKPKDTLMISRTPEVTCVVVDVSHEDPEVKFNWYVDGVEVHNAKTKPREEQYNSTYRVVSVLTVLHQDWLNGKEYKCKVSNKALPAPIEKTISKAKGQPREPQVCTLPPSRDELTKNQVSLWCLVKGFYPSDIAVEWESNGQPENNYKTTPPVLDSDGSFFLYSKLTVDKSRWQQGNVFSCSVMHEALHNRYTQKSLSLSP
light: DIVMTQSPLSLPVTPGEPASISCRSSQSLVHSNRNTYLHWYQQKPGQAPRLLIYKVSNRFSGVPDRFSGSGSGTDFTLKISRVEAEDVGVYYCGQGTQVPYTFGQGTKLEIKRTVAAPSVFIFPPSDEQLKSGTASVVCLLNNFYPREAKVQWKVDNALQSGNSQESVTEQDSKDSTYSLSSTLTLSKADYEKHKVYACEVTHQGLSSPVTKSFNRGEC
notes: one-arm antibody
B5: CE115HA000 R19T (antibody, human IgG1, kappa, L234A L235A, N297A, name in Kabat numbering)
heavy: QVQLVESGGGVVQPGRSLTLSCAASGFTFSNAWMHWVRQAPGKGLEWVAQIKAKSNNYATYYAESVKGRFTISRDDSKNSLYLQMNSLKTEDTAVYYCRYVHYGAYYGVDAWGQGTTVTVSSASTKGPSVFPLAPSSKSTSGGTAALGCLVKDYFPEPVTVSWNSGALTSGVHTFPAVLQSSGLYSLSSVVTVPSSSLGTQTYICNVNHKPSNTKVDKKVEPKSCDKTHTCPPCPAPEAAGGPSVFLFPPKPKDTLMISRTPEVTCVVVDVSHEDPEVKFNWYVDGVEVHNAKTKPREEQYASTYRVVSVLTVLHQDWLNGKEYKCKVSNKALPAPIEKTISKAKGQPREPQVYTLPPSRCELTKNQVSLSCAVKGFYPSDIAVEWESNGQPENNYKTTPPVLDSDGSFFLVSKLTVDKSRWQQGNVFSCSVMHEALHNHYTQKSLSLSPDYKDDDDK
chain: EPKSSDKTHTCPPCPAPELLGGPSVFLFPPKPKDTLMISRTPEVTCVVVDVSHEDPEVKFNWYVDGVEVHNAKTKPREEQYNSTYRVVSVLTVLHQDWLNGKEYKCKVSNKALPAPIEKTISKAKGQPREPQVCTLPPSRDELTKNQVSLWCLVKGFYPSDIAVEWESNGQPENNYKTTPPVLDSDGSFFLYSKLTVDKSRWQQGNVFSCSVMHEALHNRYTQKSLSLSP
light: DIVMTQSPLSLPVTPGEPASISCRSSQSLVHSNRNTYLHWYQQKPGQAPRLLIYKVSNRFSGVPDRFSGSGSGTDFTLKISRVEAEDVGVYYCGQGTQVPYTFGQGTKLEIKRTVAAPSVFIFPPSDEQLKSGTASVVCLLNNFYPREAKVQWKVDNALQSGNSQESVTEQDSKDSTYSLSSTLTLSKADYEKHKVYACEVTHQGLSSPVTKSFNRGEC
notes: one-arm antibody
B6: CE115HA000 R16E (antibody, human IgG1, kappa, L234A L235A, N297A, name in Kabat numbering)
heavy: QVQLVESGGGVVQPGESLRLSCAASGFTFSNAWMHWVRQAPGKGLEWVAQIKAKSNNYATYYAESVKGRFTISRDDSKNSLYLQMNSLKTEDTAVYYCRYVHYGAYYGVDAWGQGTTVTVSSASTKGPSVFPLAPSSKSTSGGTAALGCLVKDYFPEPVTVSWNSGALTSGVHTFPAVLQSSGLYSLSSVVTVPSSSLGTQTYICNVNHKPSNTKVDKKVEPKSCDKTHTCPPCPAPEAAGGPSVFLFPPKPKDTLMISRTPEVTCVVVDVSHEDPEVKFNWYVDGVEVHNAKTKPREEQYASTYRVVSVLTVLHQDWLNGKEYKCKVSNKALPAPIEKTISKAKGQPREPQVYTLPPSRCELTKNQVSLSCAVKGFYPSDIAVEWESNGQPENNYKTTPPVLDSDGSFFLVSKLTVDKSRWQQGNVFSCSVMHEALHNHYTQKSLSLSPDYKDDDDK
chain: EPKSSDKTHTCPPCPAPELLGGPSVFLFPPKPKDTLMISRTPEVTCVVVDVSHEDPEVKFNWYVDGVEVHNAKTKPREEQYNSTYRVVSVLTVLHQDWLNGKEYKCKVSNKALPAPIEKTISKAKGQPREPQVCTLPPSRDELTKNQVSLWCLVKGFYPSDIAVEWESNGQPENNYKTTPPVLDSDGSFFLYSKLTVDKSRWQQGNVFSCSVMHEALHNRYTQKSLSLSP
light: DIVMTQSPLSLPVTPGEPASISCRSSQSLVHSNRNTYLHWYQQKPGQAPRLLIYKVSNRFSGVPDRFSGSGSGTDFTLKISRVEAEDVGVYYCGQGTQVPYTFGQGTKLEIKRTVAAPSVFIFPPSDEQLKSGTASVVCLLNNFYPREAKVQWKVDNALQSGNSQESVTEQDSKDSTYSLSSTLTLSKADYEKHKVYACEVTHQGLSSPVTKSFNRGEC
notes: one-arm antibody

T1 sequence (P07766 23-126): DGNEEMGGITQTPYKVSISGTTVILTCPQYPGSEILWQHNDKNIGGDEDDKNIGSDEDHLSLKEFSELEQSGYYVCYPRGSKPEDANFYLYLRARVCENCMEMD

This assay concerns the target T1, CD3 epsilon homodimer protein (UniProt P07766 23-126).
T1 construct: also called CD3 (CD3 epsilon)
As to the kind of experiment: SPR, CD3 epsilon homodimer on chip, one-arm antibody as analyte.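 Note: surface plasmon resonance at 25 °C with CD3 epsilon homodimer amine-coupled to a CM4 sensor chip, antibody injected as analyte, HBS-EP+ as running buffer.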 On the technique in general: SPR reads the build-up and loss of mass on a sensor chip optically.
As to B1, the “KD ratio (KD of CE115HA000/KD of altered form)” value (“KD ratio” below) stood at 0.89.

Turning to B2, the “KD ratio” value was 0.87.

Turning to B3, the “KD ratio” value was found to be 0.93.

Turning to B4, the “KD ratio” value is 0.79.

With B5, the “KD ratio” value is 0.81.

As for B6, the “KD ratio” value worked out at 0.74.
